Laboratory results from patent publication EP4631523A2.

Key:
[1] = molecular target: interleukin 6 (IL-6) (UniProt P05231); assay: IL-6 binding ELISA; 40±2°C, 3 months
[2] = molecular target: interleukin 6 (IL-6) (UniProt P05231); assay: IL-6 binding ELISA; 5±3°C, 3 months
[3] = molecular target: interleukin 6 (IL-6) (UniProt P05231); assay: IL-6 binding ELISA; 25±2°C, 3 months
[4] = molecular target: interleukin 6 (IL-6) (UniProt P05231); assay: IL-6 binding ELISA; 40±2°C, 1 month
[5] = molecular target: interleukin 6 (IL-6) (UniProt P05231); assay: IL-6 binding ELISA; 40±2°C, 0 months
[6] = molecular target: interleukin 6 (IL-6) (UniProt P05231); assay: IL-6 binding ELISA; 40±2°C, 0 months; remark: listed apart in the source
[7] = molecular target: interleukin 6 (IL-6) (UniProt P05231); assay: IL-6 binding ELISA, relative to a Phase I DS lot; 50 mg/mL formulation without methionine, 12 months at 2 to 8°C
[8] = molecular target: interleukin 6 (IL-6) (UniProt P05231); assay: IL-6 binding ELISA; 25±2°C, 0 months
[9] = molecular target: interleukin 6 (IL-6) (UniProt P05231); assay: IL-6 binding ELISA; 25±2°C, 3 months; remark: listed apart in the source
[10] = molecular target: interleukin 6 (IL-6) (UniProt P05231); assay: IL-6 binding ELISA; 40±2°C, 0 months; remark: listed apart in the source
[11] = molecular target: interleukin 6 (IL-6) (UniProt P05231); assay: IL-6 binding ELISA, relative to a Phase I DS lot; 50 mg/mL formulation without methionine, T0 (frozen aliquot)
[12] = molecular target: interleukin 6 (IL-6) (UniProt P05231); assay: IL-6 binding ELISA; 25±2°C, 12 months
[13] = molecular target: interleukin 6 (IL-6) (UniProt P05231); assay: IL-6 binding ELISA; 25±2°C, 6 months
[14] = molecular target: interleukin 6 (IL-6) (UniProt P05231); assay: IL-6 binding ELISA; 25±2°C, 3 months; remark: listed apart in the source
[15] = molecular target: interleukin 6 (IL-6) (UniProt P05231); assay: IL-6 binding ELISA; 25±2°C, 0 months; remark: listed apart in the source
[16] = molecular target: interleukin 6 (IL-6) (UniProt P05231); assay: IL-6 binding ELISA; 25±2°C, 1 month
[17] = molecular target: interleukin 6 (IL-6) (UniProt P05231); assay: IL-6 binding ELISA; 25±2°C, 0 months; remark: listed apart in the source
[18] = molecular target: interleukin 6 (IL-6) (UniProt P05231); assay: IL-6 binding ELISA; 5±3°C, 9 months
[19] = molecular target: interleukin 6 (IL-6) (UniProt P05231); assay: IL-6 binding ELISA; 5±3°C, 6 months
[20] = molecular target: interleukin 6 (IL-6) (UniProt P05231); assay: IL-6 binding ELISA; 40±2°C, 1 month; remark: listed apart in the source
[21] = molecular target: interleukin 6 (IL-6) (UniProt P05231); assay: IL-6 binding ELISA; 40±2°C, 3 months; remark: listed apart in the source
[22] = molecular target: interleukin 6 (IL-6) (UniProt P05231); assay: IL-6 binding ELISA; 5±3°C, 1 month
[23] = molecular target: interleukin 6 (IL-6) (UniProt P05231); assay: IL-6 binding ELISA; 5±3°C, 3 months; remark: listed apart in the source
[24] = molecular target: interleukin 6 (IL-6) (UniProt P05231); assay: IL-6 binding ELISA; 25±2°C, 6 months; remark: listed apart in the source
[25] = molecular target: interleukin 6 (IL-6) (UniProt P05231); assay: IL-6 binding ELISA; 5±3°C, 3 months; remark: listed apart in the source
[26] = molecular target: interleukin 6 (IL-6) (UniProt P05231); assay: IL-6 binding ELISA; 5±3°C, 12 months
[27] = molecular target: interleukin 6 (IL-6) (UniProt P05231); assay: IL-6 binding ELISA; 40±2°C, 3 months; remark: listed apart in the source
[28] = molecular target: interleukin 6 (IL-6) (UniProt P05231); assay: IL-6 binding ELISA; 25±2°C, 0 months; remark: listed apart in the source
[29] = molecular target: interleukin 6 (IL-6) (UniProt P05231); assay: IL-6 binding ELISA, relative to a Phase I DS lot; 120 mg/mL formulation without methionine, T0 (frozen aliquot)
[30] = molecular target: interleukin 6 (IL-6) (UniProt P05231); assay: IL-6 binding ELISA; 25±2°C, 3 months; remark: listed apart in the source
[31] = molecular target: interleukin 6 (IL-6) (UniProt P05231); assay: IL-6 binding ELISA; 40±2°C, 1 month; remark: listed apart in the source
[32] = molecular target: interleukin 6 (IL-6) (UniProt P05231); assay: IL-6 binding ELISA; 40±2°C, 3 months; remark: listed apart in the source

UniProt P05231, sequence (P05231 30-212 limits assumed): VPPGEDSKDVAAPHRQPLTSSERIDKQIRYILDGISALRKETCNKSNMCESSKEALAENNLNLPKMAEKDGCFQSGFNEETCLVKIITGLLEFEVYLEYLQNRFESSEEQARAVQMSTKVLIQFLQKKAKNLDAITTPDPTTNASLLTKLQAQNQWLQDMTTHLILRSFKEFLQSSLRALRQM

B1: COR-001 antibody (antibody, human IgG1, kappa, V domains shown)
VH: EVQLVESGGGLVQPGGSLRLSCAASGFTISSNYMIWVRQAPGKGLEWVSDLYYYAGDTYYADSVKGRFTMSRDISKNTVYLQMNSLRAEDTAVYYCARWADDHPPWIDLWGRGTLVTVSS
VL: DIQMTQSPSTLSASVGDRVTITCRASQGISSWLAWYQQKPGKAPKVLIYKASTLESGVPSRFSGSGSGTEFTLTISSLQPDDFATYYCQQSWLGGSFGQGTKLEIKR
With B1 the IL-6 binding ELISA (% of Reference Standard) [1] was 99%, the IL-6 binding ELISA (% of Reference Standard) [2] was 92% and the IL-6 binding ELISA (% of Reference Standard) [3] was 84%. The IL-6 binding ELISA (% of Reference Standard) [4] was 92%, the IL-6 binding ELISA (% of Reference Standard) [5] was 96% and the IL-6 binding ELISA (% of Reference Standard) [6] was 97%. The IL-6 binding ELISA (% of assay control) [7] was 89%, the IL-6 binding ELISA (% of Reference Standard) [8] was 94% and the IL-6 binding ELISA (% of Reference Standard) [9] was 90%. For the same binder, the IL-6 binding ELISA (% of Reference Standard) [10] was 91%, the IL-6 binding ELISA (% of assay control) [11] was 70% and the IL-6 binding ELISA (% of Reference Standard) [12] was 95%. It also gave an IL-6 binding ELISA (% of Reference Standard) [13] of 82%, an IL-6 binding ELISA (% of Reference Standard) [14] of 97% and an IL-6 binding ELISA (% of Reference Standard) [15] of 103%. It also gave an IL-6 binding ELISA (% of Reference Standard) [16] of 96%, an IL-6 binding ELISA (% of Reference Standard) [17] of 91% and an IL-6 binding ELISA (% of Reference Standard) [18] of 85%. The IL-6 binding ELISA (% of Reference Standard) [19] was 95%, the IL-6 binding ELISA (% of Reference Standard) [20] was 89% and the IL-6 binding ELISA (% of Reference Standard) [21] was 94%. For the same binder, the IL-6 binding ELISA (% of Reference Standard) [22] was 98%, the IL-6 binding ELISA (% of Reference Standard) [23] was 93% and the IL-6 binding ELISA (% of Reference Standard) [24] was 88%. For the same binder, the IL-6 binding ELISA (% of Reference Standard) [25] was 83%, the IL-6 binding ELISA (% of Reference Standard) [26] was 95% and the IL-6 binding ELISA (% of Reference Standard) [27] was 97%. It also gave an IL-6 binding ELISA (% of Reference Standard) [28] of 97%, an IL-6 binding ELISA (% of assay control) [29] of 91% and an IL-6 binding ELISA (% of Reference Standard) [30] of 91%. The IL-6 binding ELISA (% of Reference Standard) [31] was 95% and the IL-6 binding ELISA (% of Reference Standard) [32] was 78%.
